Experimental data: the Human Domainome abundance scans (Beltran et al. 2025)
± gives the uncertainty stated by the source.

B1: Zinc finger MYM-type protein 6, residues 427 to 504; numbered along this chain, O95789 (parent)
chain: KLKCQHCNHLFATKPELLFYKGKMFLFCGKNCSDEYKKKNKVVAMCDYCKLQKIIKETVRFSGVDKPFCSEVCKFLSA

Variants of: B1
Experiment: abundance fitness (aPCA) (normalised: wild type 0, dead -1); higher = more abundant; growth selection in yeast, the domain comes from the species named
Conditions: Homo sapiens

Abundance fitness of substitutions, site by site:
Y36: C -0.187 ± 0.061, D -0.453 ± 0.088, G -0.183 ± 0.029, H -0.005 ± 0.076, K -0.661 ± 0.12, L -0.181 ± 0.032, M -0.093 ± 0.056, N -0.172 ± 0.17, Q -0.13 ± 0.056, R -0.26 ± 0.028, T -0.169 ± 0.06, V -0.15 ± 0.038, W -0.042 ± 0.033
K37: A 0.004 ± 0.028, C -0.074 ± 0.084, D -0.057 ± 0.065, G -0.027 ± 0.027, L -0.134 ± 0.035, M -0.214 ± 0.15, N 0.097 ± 0.24, P -0.114 ± 0.036, Q 0.051 ± 0.084, R -0.046 ± 0.028, S -0.068 ± 0.051, T -0.099 ± 0.04, V -0.029 ± 0.03, W -0.099 ± 0.033
K38: A 0.023 ± 0.029, D -0.114 ± 0.068, E -0.014 ± 0.041, G -0.026 ± 0.027, L -0.088 ± 0.043, M -0.063 ± 0.057, P -0.163 ± 0.042, Q -0.053 ± 0.042, S -0.027 ± 0.038, T -0.014 ± 0.043, V -0.018 ± 0.032, W -0.136 ± 0.042
K39: A 0.029 ± 0.03, C -0.163 ± 0.063, E -0.012 ± 0.057, G 0.005 ± 0.027, H -0.078 ± 0.095, L -0.107 ± 0.052, M -0.087 ± 0.06, P -0.055 ± 0.048, Q -0.043 ± 0.047, R -0.004 ± 0.029, S 0.003 ± 0.043, T -0.058 ± 0.057, V -0.023 ± 0.044, W -0.099 ± 0.036, Y 0.024 ± 0.25
N40: A -0.02 ± 0.064, C -0.135 ± 0.052, D 0.019 ± 0.06, E -0.071 ± 0.06, G -0.086 ± 0.04, H -0.104 ± 0.057, K -0.105 ± 0.059, L -0.191 ± 0.077, P -0.172 ± 0.04, R -0.045 ± 0.06, S 0.049 ± 0.053, T -0.014 ± 0.18, V -0.03 ± 0.051, Y -0.24 ± 0.095
V43: A -0.423 ± 0.19, D -0.271 ± 0.37, E -0.064 ± 0.33, G -0.224 ± 0.094, H -0.763 ± 0.22, K 0.542 ± 0.26, L -0.7 ± 0.33, M 0.55 ± 0.12, N 0.239 ± 0.17, R -0.224 ± 0.13, W -0.416 ± 0.27
A44: E -0.112 ± 0.16, G -0.132 ± 0.076, K 0.117 ± 0.14, M 0.39 ± 0.28, P -0.604 ± 0.28, Q 0.054 ± 0.21, R -0.495 ± 0.1, S -0.282 ± 0.12, T -0.629 ± 0.28, V -0.319 ± 0.19, W -0.558 ± 0.28, Y -1.28 ± 0.26
M45: A 0.039 ± 0.089, C -0.407 ± 0.26, E -0.051 ± 0.13, G -0.502 ± 0.085, H -0.345 ± 0.36, K -0.237 ± 0.18, L -0.671 ± 0.18, P -0.328 ± 0.16, R -0.062 ± 0.073, S -0.073 ± 0.094, V -0.145 ± 0.096, W -0.842 ± 0.25, Y 0.35 ± 0.14
C46: A -0.479 ± 0.12, D -0.531 ± 0.15, E -0.674 ± 0.13, G -0.629 ± 0.094, I 0.329 ± 0.44, K 0.241 ± 0.13, M -0.159 ± 0.12, P -0.248 ± 0.2, R -0.331 ± 0.099, S -0.703 ± 0.17, T -0.311 ± 0.18, V -0.308 ± 0.11, W 0.056 ± 0.11
D47: A -0.033 ± 0.087, C -0.16 ± 0.16, E -0.125 ± 0.13, H 0.26 ± 0.23, I -0.306 ± 0.46, L 0.177 ± 0.066, N -0.327 ± 0.19, Q -0.106 ± 0.2, R -0.394 ± 0.09, S 0.311 ± 0.082, T -0.041 ± 0.15, V -0.58 ± 0.1, W 0.424 ± 0.072
Y48: A -0.557 ± 0.11, C 0.426 ± 0.21, E -0.861 ± 0.28, G -0.174 ± 0.077, H 0.537 ± 0.18, K -0.496 ± 0.22, L -0.496 ± 0.11, M -0.65 ± 0.17, N -0.184 ± 0.21, P -0.801 ± 0.23, Q 0.059 ± 0.14, R -0.043 ± 0.076, S -0.52 ± 0.13, T -0.014 ± 0.34, V -0.677 ± 0.12, W -0.276 ± 0.11
C49: A -0.604 ± 0.11, D -0.718 ± 0.14, E -0.64 ± 0.18, G -0.54 ± 0.083, K -0.433 ± 0.32, M -0.677 ± 0.23, Q 0.123 ± 0.19, R -0.242 ± 0.089, S -0.489 ± 0.13, T -0.54 ± 0.32, V -1.07 ± 0.17, W -1.05 ± 0.22
K50: A -0.786 ± 0.16, C -0.805 ± 0.19, D -0.767 ± 0.37, E -0.363 ± 0.14, G -0.228 ± 0.076, H -0.427 ± 0.43, L -0.722 ± 0.19, M -0.685 ± 0.27, N -0.23 ± 0.17, Q 0.164 ± 0.17, R -0.172 ± 0.074, S -0.422 ± 0.18, T -0.687 ± 0.45, V -0.96 ± 0.13, W -0.709 ± 0.13, Y -0.48 ± 0.5
L51: A 0.187 ± 0.077, C 0.49 ± 0.13, D 0.345 ± 0.32, G 0.484 ± 0.058, H 0.513 ± 0.17, I 0.022 ± 0.32, K 0.414 ± 0.11, M 0.805 ± 0.092, Q 0.529 ± 0.12, R 0.509 ± 0.064, S 0.567 ± 0.089, T 0.551 ± 0.1, V -0.119 ± 0.091, W -0.806 ± 0.13
Q52: A -0.485 ± 0.11, C -0.576 ± 0.23, E 0.446 ± 0.075, K 0.51 ± 0.11, L -0.128 ± 0.093, M 0.234 ± 0.23, P 0.108 ± 0.22, R 0.061 ± 0.071, T 0.181 ± 0.09, V 0.173 ± 0.092, W -0.483 ± 0.2
K53: A -0.126 ± 0.13, C 0.367 ± 0.12, E -0.353 ± 0.13, F 0.088 ± 0.36, G -0.148 ± 0.067, L -0.351 ± 0.099, M -0.189 ± 0.21, P -0.154 ± 0.15, R -0.308 ± 0.096, S -0.431 ± 0.15, V -0.127 ± 0.11, W -0.313 ± 0.09
I54: A 0.557 ± 0.068, C 0.675 ± 0.26, G 0.238 ± 0.06, K 0.356 ± 0.17, L 0.128 ± 0.078, M 0.623 ± 0.083, N 0.189 ± 0.39, P 0.442 ± 0.1, Q 0.52 ± 0.08, R 0.157 ± 0.068, S 0.174 ± 0.18, T 0.104 ± 0.17, V 0.131 ± 0.076, W -0.079 ± 0.11
I55: A 0.243 ± 0.082, E 0.197 ± 0.12, G 0.16 ± 0.063, H 0.164 ± 0.15, K -0.138 ± 0.46, L -0.774 ± 0.25, M 0.211 ± 0.31, P 0.281 ± 0.2, Q -0.185 ± 0.18, R -0.055 ± 0.077, S 0.305 ± 0.088, T 0.161 ± 0.1, V 0.32 ± 0.07, W -0.623 ± 0.17
K56: C -0.658 ± 0.43, E -0.49 ± 0.15, G -0.192 ± 0.078, H -0.113 ± 0.15, L -0.382 ± 0.16, M 0.511 ± 0.12, P 0.182 ± 0.12, Q -0.044 ± 0.14, R -0.423 ± 0.089, S -0.411 ± 0.15, V -0.071 ± 0.092, W -0.16 ± 0.092
E57: A -0.129 ± 0.1, C 0.163 ± 0.27, D 0.002 ± 0.3, G -0.163 ± 0.069, H 0.272 ± 0.27, L -0.711 ± 0.25, M 0.605 ± 0.12, Q -0.289 ± 0.38, R -0.181 ± 0.087, S -0.388 ± 0.13, T 0.026 ± 0.13, V -0.059 ± 0.1
T58: A -0.585 ± 0.11, D 0.779 ± 0.11, E -0.277 ± 0.14, G -0.125 ± 0.084, H 0.511 ± 0.41, K 0.055 ± 0.44, L -0.546 ± 0.45, P -0.328 ± 0.21, R 0.019 ± 0.071, V 0.031 ± 0.1, W -0.669 ± 0.28, Y 0.177 ± 0.41
V59: A -0.078 ± 0.095, C -0.452 ± 0.38, D -0.246 ± 0.21, E -0.053 ± 0.13, K -0.051 ± 0.11, L 0.051 ± 0.13, M 0.461 ± 0.24, P -0.246 ± 0.15, Q -0.416 ± 0.12, R -0.42 ± 0.084, S -0.314 ± 0.12, T 0.204 ± 0.18, W -0.344 ± 0.17, Y -0.536 ± 0.42
R60: C -0.059 ± 0.1, D 0.342 ± 0.21, E 0.008 ± 0.24, G -0.215 ± 0.082, H 0.001 ± 0.28, K 0.041 ± 0.14, L -0.309 ± 0.13, M 0.46 ± 0.14, N 0.366 ± 0.19, P 0.116 ± 0.12, Q 0.014 ± 0.16, S 0.39 ± 0.13, V -0.093 ± 0.12, W -0.468 ± 0.17, Y -0.423 ± 0.38
F61: A 0.209 ± 0.073, C 0.561 ± 0.085, D 0.56 ± 0.09, E 0.298 ± 0.083, G -0.002 ± 0.079, H -0.151 ± 0.41, I 0.679 ± 0.22, K -0.027 ± 0.18, L 0.302 ± 0.09, M 0.979 ± 0.1, P -0.308 ± 0.21, R 0.117 ± 0.074, S 0.538 ± 0.11, T 0.348 ± 0.086, V 0.399 ± 0.079, W 0.313 ± 0.091
S62: A 0.054 ± 0.079, C -0.072 ± 0.14, D 0.914 ± 0.083, G 0.327 ± 0.07, H 0.585 ± 0.089, L -0.19 ± 0.2, M 0.432 ± 0.17, P -0.325 ± 0.12, Q 0.316 ± 0.08, R -0.01 ± 0.096, T -0.141 ± 0.28, V -0.536 ± 0.13, W -0.696 ± 0.24, Y 0.176 ± 0.15
